What all share (assay): SEC
(In general: Size exclusion chromatography separates by hydrodynamic size, large species first.)

Experiment [1] deals with PriRep5 K591A (Staphylococcus aureus (SaPI5, strain USA300)).
Experiment [2] deals with PriRep5-ΔCTD (residues 676-790 removed) (Staphylococcus aureus (SaPI5, strain USA300)).
Experiment [3] concerns the target Rep1 Triple Mutant (R248A-Y251A-K253A) (Staphylococcus aureus (SaPI1)) (UniProt Q8GNZ1).

In the case of PriRep5 K591A (natural protein), the stoichiometry N in experiment [1] amounted to 6.

“PriRep5-ΔCTD (residues 676-790 removed) (domain or fragment)” gave a stoichiometry N in experiment [2] of 6.

Regarding “Rep1 Triple Mutant (R248A-Y251A-K253A) (from UniProt Q8GNZ1 1-66) (natural protein)”, the stoichiometry N in experiment [3] was 6.

The term stoichiometry N denotes the number of molecules, sites or subunits per partner or assembly.

The values above are taken from paper PMC9371898.
